Measurements published in US10689429B2, “Double-acylated GLP-1 compounds” (Novo Nordisk A/S, priority 2014, dated 2020).
Like-named read-outs stand apart in the source and are kept apart here. *1 amine or outer side, *2 acyl side, *3 side chain or, on linkers, in order; H or OH if unused. Where no end group is shown, it is not given here. Side-chain parts run from the residue outwards. [ ]: non-standard residue; d: D form. The star is where a group is joined. Undecanoyl(11-OPh(4-COOH)) = O=C(O)c1ccc(OCCCCCCCCCCC(=O)*)cc1; Decanoyl(10-O(3-COOH-Ph)) = O=C(O)c1cccc(OCCCCCCCCCC(=O)*)c1; γGlu = O=C(O)[C@H](CCC(=O)[*:2])N[*:1]; C14 diacid = O=C(O)CCCCCCCCCCCCC(=O)*; AEEA = NCCOCCOCC(=O)O; Aib = CC(C)(N)C(=O)O

Columns and labels:
[1] = Pharmacokinetic study in mini pigs after i.v. administration; assay type: in vivo; settings: female, Göttingen, pig, plasma, iv, 2 nmol/kg; read-out: Minipig iv PK, t½ (converted)
Procedure: The purpose of this study is to determine the protraction in vivo of the GLP-1 derivatives after i.v. administration to mini pigs, i.e. the prolongation of their time in the body and thereby their time of action. This was done in pharmacokinetic (PK) studies, where the terminal half-life of the derivative in question was determined. By terminal half-life is generally meant the period of time it takes to halve a certain plasma concentration, measured after the initial distribution phase.
Female Göttingen mini pigs obtained from Ellegaard Göttingen Minipigs (Dalmose, Denmark) at approximately 5 months of age and weighing approximately 10 kg were used in the studies. The mini pigs were housed in pens with straw as bedding, four to six together in each pen and fed restrictedly once or twice daily with Altromin 9023 mini pig diet (Chr. Petersen A/S, DK-4100 Ringsted). The pigs were used for repeated pharmacokinetic studies with a suitable wash-out period between successive GLP-1 derivative dosings. An acclimatisation period of 1 week was allowed during which time the mini pigs were trained to be fixated on the back for blood sampling and in slings for i.v. dosing. All handling, dosing and blood sampling of the animals was performed by trained and skilled staff.
The GLP-1 derivatives were dissolved in 50 mM sodium phosphate, 70 mM sodium chloride, 0.05% tween 80, pH 7.4 to a concentration of approximately 20 nmol/ml. Intravenous injections (the volume corresponding to usually 2 nmol/kg, for example 0.1 ml/kg) of the compounds were given as intravenous injections via a Venflon inserted in an ear vein, while the animals were placed un-anaesthetised in a sling. The dose volume was 0.1 ml/kg, and blood was sampled at predefined time points for up till 13 days post dosing (samples were taken with a syringe from a jugular vein). Blood samples (for example 0.8 ml) were collected in EDTA buffer (8 mM) and then centrifuged at 4° C. and 2000 G for 10 minutes.
Individual plasma concentration-time profiles were analysed by a non-compartmental model in WinNonlin v. […] 6.2 or 6.3 (Pharsight Inc., Mountain View, Calif., USA), or other relevant software for PK analysis, and the resulting terminal half-lives determined.

human GLP-1 receptor [2] = biological target: T1, human GLP-1 receptor (Homo sapiens, UniProt P43220); assay: In vitro potency, CRE luciferase reporter gene assay in BHK cells expressing the human GLP-1 receptor; assay type: cell-based; settings: average of duplicates;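 further: firefly luciferase luminescence read after 3 h incubation at 37 °C, compounds tested in an eight-point series from 0.01 pM to 100 nM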
T1 construct: expressed in transfected cells; host or cells: membranes from BHK cells, parent line BHKTS13, clone FCW467-12A
Target sequence in this assay (P43220 24-463): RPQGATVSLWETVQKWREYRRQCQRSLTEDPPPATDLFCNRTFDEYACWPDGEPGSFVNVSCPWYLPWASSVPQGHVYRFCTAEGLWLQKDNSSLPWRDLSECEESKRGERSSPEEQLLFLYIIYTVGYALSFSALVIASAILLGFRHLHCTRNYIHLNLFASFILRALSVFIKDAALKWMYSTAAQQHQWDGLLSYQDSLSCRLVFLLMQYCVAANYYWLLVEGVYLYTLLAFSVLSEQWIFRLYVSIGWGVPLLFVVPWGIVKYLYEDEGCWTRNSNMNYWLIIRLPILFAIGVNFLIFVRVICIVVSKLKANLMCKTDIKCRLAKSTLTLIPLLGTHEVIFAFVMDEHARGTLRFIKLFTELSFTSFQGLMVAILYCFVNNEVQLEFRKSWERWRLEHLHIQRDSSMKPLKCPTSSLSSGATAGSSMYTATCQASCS
Procedure: The in vitro potency is the measure of human GLP-1 receptor activation in a whole cell assay.
In vitro potency was determined by measuring the response of the human GLP-1 receptor in a reporter gene assay. The assay was performed in a stably transfected BHK cell line that expresses the human GLP-1 receptor and contains the DNA for the cAMP response element (CRE) coupled to a promoter and the gene for firefly luciferase (CRE luciferase). When the human GLP-1 receptor is activated it results in the production of cAMP, which in turn results in the luciferase protein being expressed. When assay incubation is completed the luciferase substrate (luciferin) is added and the enzyme converts luciferin to oxyluciferin to produce bioluminescence. The luminescence is measured as the readout for the assay.
An increase of the in vitro potency, EC50 value, in the presence of serum albumin would indicate an affinity to serum albumin and represents a method to predict a protracted pharmacokinetic profile of the test substance in animal models.
The cells were cultured at 5% CO2 in Cell Culture Medium. They were aliquoted and stored in liquid nitrogen. Before each assay an aliquot is taken up and washed twice in PBS before being suspended at the desired concentration in the assay specific buffer. For 96-well plates the suspension was made to give a final concentration of 5×10^3 cells/well.
Assay Medium consisted of DMEM w/o phenol red, 10 mM Hepes and 1× Glutamax. The 1% Assay Buffer consisted of 2% ovalbumin, 0.2% Pluronic F-68 and 2% HSA in Assay Medium. The 0% Assay Buffer consisted of 2% ovalbumin and 0.2% Pluronic F-68 in Assay Medium.
1) Cell stocks were thawed in a 37° C. water bath.
2) Cells were washed three times in PBS.
3) The cells were counted and adjusted to 5×10^3 cells/50 μl (1×10^5 cells/ml) in Assay Medium. A 50 μl aliquot of cells was transferred to each well in the assay plate.
4) Stocks of the test compounds and reference compounds were diluted to a concentration of 0.2 pM in 0% Assay Buffer for the 0% HSA CRE luciferase assay and 1% Assay Buffer for the 1% HSA CRE luciferase assay. […] Compounds were tested at the following final concentrations: 1×10^−7 M, 1×10^−8 M; 1×10^−9 M, 1×10^−10 M, 1×10^−11 M, 1×10^−12 M, 1×10^−13 M, and 1×10^−14 M. 6) The assay plate was incubated for 3 h in a 5% CO2 incubator at 37° C. […] 8) A 100 μl aliquot of steadylite plus reagent was added to each well of the assay plate (reagent was light sensitive). 9) Each assay plate was covered with aluminum foil to protect it from light and shaken for 30 min at room temperature. 10) Each assay plate was read in a Packard TopCount NXT instrument. Calculations and Results
The data from the TopCount instrument were transferred to GraphPad Prism software. The software performs a non-linear regression (log(agonist) vs response).
A minimum of two replicates was measured for each sample on separate assay plates. The reported values are averages of the duplicates. For some examples more than one assay was run and in this case the data reported are the averages of the averaged duplicates.

human GLP-1 receptor [3] = biological target: T1, human GLP-1 receptor; assay: GLP-1 receptor binding, competitive 125I-GLP-1 SPA binding assay on isolated membranes; settings: low HSA (max. 0.001% final assay concentration)
[4] = Pharmacodynamic (PD) study in pigs, effect on food intake; assay type: in vivo
Procedure: The purpose of this experiment is to investigate the effect of the GLP-1 derivatives on food intake in pigs. This was done in a pharmacodynamic (PD) study as described below, in which food intake was measured from 1 to 4 days after administration of a single dose of the GLP-1 derivative, as compared to a vehicle-treated control group.
Female Landrace Yorkshire Duroc (LYD) pigs or Large White hybrid, approximately 3 months of age, weighing approximately 30-35 kg were used (n=3-4 per group). The animals were housed in a group for approximately 1 week during acclimatisation to the animal facilities. During the experimental period the animals were placed in individual pens at least 2 days before dosing and during the entire experiment for measurement of individual food intake.
The animals were fed ad libitum with pig fodder (Svinefoder Danish Top or HRC Sow and Weaner Diet) at all times both during the acclimatisation and the experimental period. Food intake was monitored on line by logging the weight of fodder every 15 minutes using the Mpigwin system (Ellegaard Systems, Faaborg, Denmark). Alternatively fodder was offered in the morning each day, and availability for the full 24-hour period was ensured. Any uneaten fodder was removed and weighed (manually) on the following morning, and replaced with fresh fodder.
The GLP-1 derivatives were dissolved in a phosphate buffer (50 mM sodium phosphate, 70 mM sodium chloride, 0.05% tween 80, pH 7.4) at concentrations of approximately 120 nmol/ml corresponding to doses of 3 nmol/kg. The phosphate buffer served as vehicle.
On the last day of each study, 2 or 4 days after dosing, a blood sample for measurement of plasma exposure of the GLP-1 derivative was taken from the heart in anaesthetised animals.
Food intake was calculated in 24 h intervals (0-24 h, 24-48 h, 48-72 h and 72-96 h).

human GLP-1 receptor [5] = biological target: T2, human GLP-1 receptor (human, UniProt P43220); assay: displacement of [125I]-GLP-1-(7-36)NH2 from membranes with human GLP-1 receptor, SPA, high HSA (2.0%)
Procedure: (§1) Each derivative is added in a series of concentrations to isolated membranes containing the human GLP-1 receptor and displacement of the labelled ligand is monitored. The receptor binding is reported as the concentration at which half of the labelled ligand is displaced from the receptor, the $IC50$ value.
(§2) For the receptor binding assay in the presence of low HSA (0.001%) 50 μl of the assay buffer was added to each well of an assay plate. […] For the receptor binding assay in the presence of high HSA (2.0%) 50 μl of the 8% albumin stock was added to each well of an assay plate. […] Cell membrane aliquots were thawed and diluted to their working concentration. Fifty μl were added to each well in the assay plate. […] WGA SPA beads were suspended in assay buffer at 20 mg/ml. The suspension was diluted to 10 mg/ml in assay buffer just prior to addition to the assay plate. Fifty μl were added to each well in the assay plate. […] A 25 μl aliquot was reserved for measuring total counts/well. […] The assay plate was incubated for 2 h at 30° C. […] The assay plate was centrifuged for 10 min. […] The assay plate was read in a Packard TopCount NXT instrument.

human GLP-1 receptor [6] = biological target: T2, human GLP-1 receptor; assay: displacement of [125I]-GLP-1-(7-36)NH2 from membranes with human GLP-1 receptor, SPA, low HSA (0.001%)
Procedure: as §1, §2

human GLP-1 receptor [7] = biological target: T2, human GLP-1 receptor
Target sequence in this assay (P43220 24-463): as above

[8] = EC50/pM (1% HSA), 1% HSA final assay concentration
[9] = 0% HSA, read-out: EC50/pM (0% HSA)

Molecule | EC50 (human GLP-1 receptor [2]; [8]) | IC50 (human GLP-1 receptor [5]) | IC50 (human GLP-1 receptor [6]) | EC50/pM (0% HSA) (human GLP-1 receptor [7]) | EC50/pM (1% HSA) (human GLP-1 receptor [7]) | also measured
CC[C@H](C)[C@H](NC(=O)[C@H](Cc1ccccc1)NC(=O)[C@H](CCC(=O)O)NC(=O)[C@H](CCCNC(=N)N)NC(=O)[C@H](C)NC(=O)[C@H](C)NC(=O)[C@H](CCC(N)=O)NC(=O)[C@H](CCC(=O)O)NC(=O)[C@H](CCC(=O)O)NC(=O)[C@H](CC(C)C)NC(=O)[C@H](Cc1ccc(O)cc1)NC(=O)[C@H](CO)NC(=O)[C@H](CO)NC(=O)[C@@H](NC(=O)[C@H](CC(=O)O)NC(=O)[C@H](CO)NC(=O)[C@@H](NC(=O)[C@H](Cc1ccccc1)NC(=O)[C@@H](NC(=O)CNC(=O)[C@H](CCC(=O)O)NC(=O)C(C)(C)NC(=O)[C@@H](N)Cc1c[nH]cn1)[C@@H](C)O)[C@@H](C)O)C(C)C)C(=O)N[C@@H](C)C(=O)N[C@@H](Cc1c[nH]c2ccccc12)C(=O)N[C@@H](CC(C)C)C(=O)N[C@H](C(=O)N[C@@H](CCCNC(=N)N)C(=O)NCC(=O)N[C@@H](CCCCNC(=O)COCCOCCNC(=O)COCCOCCNC(=O)CC[C@H](NC(=O)CCCCCCCCCOc1ccc(C(=O)O)cc1)C(=O)O)C(=O)N[C@@H](CCCCNC(=O)COCCOCCNC(=O)COCCOCCNC(=O)CC[C@H](NC(=O)CCCCCCCCCOc1ccc(C(=O)O)cc1)C(=O)O)C(=O)O)C(C)C [Example 3, N{Epsilon-36}-[2-[2-[2-[[2-[2-[2-[[(4S)-4-carboxy-4-[10-(4-carboxyphenoxy)decanoylamino]butanoyl]amino]ethoxy]ethoxy]acetyl]amino]ethoxy]ethoxy]acetyl], N{Epsilon-37}-[2-[2-[2-[[2-[2-[2-[[(4S)-4-carboxy-4-[10-(4-carboxyphenoxy)decanoylamino]butanoyl]amino]ethoxy]ethoxy]acetyl]amino]ethoxy]ethoxy]acetyl]-[Aib8,Glu22,Arg26,Arg34,Lys36,Lys37]-GLP-1-(7-37)-peptide] | 28 pM | – | – | – | – | half-life [1]: 71 h; EC50 (human GLP-1 receptor [2]; EC50/pM (0% HSA), 0% HSA): 1.2 pM; IC50 (human GLP-1 receptor [3]; IC50/nM (low HSA)): 0.19 nM
CC[C@H](C)[C@H](NC(=O)[C@H](Cc1ccccc1)NC(=O)[C@H](CCC(=O)O)NC(=O)[C@H](CCCNC(=N)N)NC(=O)[C@H](C)NC(=O)[C@H](C)NC(=O)[C@H](CCC(N)=O)NC(=O)[C@H](CCC(=O)O)NC(=O)[C@H](CCC(=O)O)NC(=O)[C@H](CC(C)C)NC(=O)[C@H](Cc1ccc(O)cc1)NC(=O)[C@H](CO)NC(=O)[C@H](CO)NC(=O)[C@@H](NC(=O)[C@H](CC(=O)O)NC(=O)[C@H](CO)NC(=O)[C@@H](NC(=O)[C@H](Cc1ccccc1)NC(=O)[C@@H](NC(=O)CNC(=O)[C@H](CCC(=O)O)NC(=O)C(C)(C)NC(=O)[C@@H](N)Cc1c[nH]cn1)[C@@H](C)O)[C@@H](C)O)C(C)C)C(=O)N[C@@H](C)C(=O)N[C@@H](Cc1c[nH]c2ccccc12)C(=O)N[C@@H](CC(C)C)C(=O)N[C@H](C(=O)N[C@@H](CCCNC(=N)N)C(=O)NCC(=O)N[C@@H](CCCCNC(=O)COCCOCCNC(=O)COCCOCCNC(=O)COCCOCCNC(=O)COCCOCCNC(=O)CC[C@H](NC(=O)CCCCCCCCCCCCC(=O)O)C(=O)O)C(=O)N[C@@H](CCCCNC(=O)COCCOCCNC(=O)COCCOCCNC(=O)COCCOCCNC(=O)COCCOCCNC(=O)CC[C@H](NC(=O)CCCCCCCCCCCCC(=O)O)C(=O)O)C(=O)O)C(C)C [Example 20] | 5.8 pM | – | – | – | – | PD in pig, food intake (% of vehicle) for hours 0-24 ([4]; single s.c. dose 3 nmol/kg, 0-24 h, NS = not significantly different from vehicle): 10 % of vehicle; PD in pig, food intake (% of vehicle) for hours 24-48 ([4]; single s.c. dose 3 nmol/kg, 24-48 h, NS = not significantly different from vehicle): 18 % of vehicle; PD in pig, food intake (% of vehicle) for hours 48-72 ([4]; single s.c. dose 3 nmol/kg, 48-72 h, NS = not significantly different from vehicle): 65 % of vehicle; PD in pig, food intake (% of vehicle) for hours 72-96 ([4]; single s.c. dose 3 nmol/kg, 72-96 h, NS = not significantly different from vehicle): 81^NS % of vehicle; reduction in food intake (in words) ([4]; single s.c. injection in pigs): largest reduction in food intake; EC50 (human GLP-1 receptor [2]; [9]): 2.7 pM
CC[C@H](C)[C@H](NC(=O)[C@H](Cc1ccccc1)NC(=O)[C@H](CCC(=O)O)NC(=O)[C@H](CCCNC(=N)N)NC(=O)[C@H](C)NC(=O)[C@H](C)NC(=O)[C@H](CCC(N)=O)NC(=O)[C@H](CCC(=O)O)NC(=O)[C@H](CCC(=O)O)NC(=O)[C@H](CC(C)C)NC(=O)[C@H](Cc1ccc(O)cc1)NC(=O)[C@H](CO)NC(=O)[C@H](CO)NC(=O)[C@@H](NC(=O)[C@H](CC(=O)O)NC(=O)[C@H](CO)NC(=O)[C@@H](NC(=O)[C@H](Cc1ccccc1)NC(=O)[C@@H](NC(=O)CNC(=O)[C@H](CCC(=O)O)NC(=O)C(C)(C)NC(=O)[C@@H](N)Cc1c[nH]cn1)[C@@H](C)O)[C@@H](C)O)C(C)C)C(=O)N[C@@H](C)C(=O)N[C@@H](Cc1c[nH]c2ccccc12)C(=O)N[C@@H](CC(C)C)C(=O)N[C@H](C(=O)N[C@@H](CCCNC(=N)N)C(=O)NCC(=O)N[C@@H](CCCCNC(=O)COCCOCCNC(=O)COCCOCCNC(=O)CC[C@H](NC(=O)CCCCCCCCCCCCC(=O)O)C(=O)O)C(=O)N[C@@H](CCCCNC(=O)COCCOCCNC(=O)COCCOCCNC(=O)CC[C@H](NC(=O)CCCCCCCCCCCCC(=O)O)C(=O)O)C(=O)O)C(C)C [Example 5, N{Epsilon-36}-[2-[2-[2-[[2-[2-[2-[[(4S)-4-carboxy-4-(13-carboxytridecanoylamino)butanoyl]amino]ethoxy]ethoxy]acetyl]amino]ethoxy]ethoxy]acetyl], N{Epsilon-37}-[2-[2-[2-[[2-[2-[2-[[(4S)-4-carboxy-4-(13-carboxytridecanoylamino)butanoyl]amino]ethoxy]ethoxy]acetyl]amino]ethoxy]ethoxy]acetyl]-[Aib8,Glu22,Arg26,Arg34,Lys36,Lys37]-GLP-1-(7-37)-peptide] | 22 pM | – | – | – | – | half-life [1]: 99 h; EC50 (human GLP-1 receptor [2]; [9]): 1.1 pM; IC50 (human GLP-1 receptor [3]; read-out: IC50/nM (low HSA)): 0.2 nM
H[Aib]EGTFTSDVSSYLEEQAAREFIAWLVRGK([AEEA-AEEA-γGlu-γGlu-C14 diacid])K([AEEA-AEEA-γGlu-γGlu-C14 diacid]) [GLP-1 derivative of Example 21] | – | 89 nM | 0.42 nM | 5.6 pM | 13 pM | –
H[Aib]EGTFTSDVSSYLEEQAAREFIEWLVRGK([AEEA-AEEA-γGlu-Decanoyl(10-O(3-COOH-Ph))])K([AEEA-AEEA-γGlu-Decanoyl(10-O(3-COOH-Ph))]) [GLP-1 derivative of Example 27] | – | 478 nM | 0.66 nM | 13 pM | 105 pM | –
H[Aib]EGTFTSDVSSYLEEQAAREFIAWLVRGKK (not fully specified (residues 30, 31)) [GLP-1 derivative of Example 1] | – | 135 nM | 0.21 nM | 1.2 pM | 136 pM | –
H[Aib]EGTFTSDVSSYLEEQAAREFIAWLVRGK([AEEA-AEEA-γGlu-Decanoyl(10-O(3-COOH-Ph))])K([AEEA-AEEA-γGlu-Decanoyl(10-O(3-COOH-Ph))]) [GLP-1 derivative of Example 15] | – | 126 nM | 0.38 nM | 6.1 pM | 44 pM | –
HGEGTFTSDVSSYLEEQAAREFIAWLVRGK([AEEA-AEEA-γGlu-Undecanoyl(11-OPh(4-COOH))])K([AEEA-AEEA-γGlu-Undecanoyl(11-OPh(4-COOH))]) [GLP-1 derivative of Example 17] | – | 536 nM | 0.9 nM | 14 pM | 199 pM | –
H[Aib]EGTFTSDVSSYLEEQAAREFIAWLVRGK([AEEA-AEEA-AEEA-AEEA-γGlu-C14 diacid])K([AEEA-AEEA-AEEA-AEEA-γGlu-C14 diacid]) [GLP-1 derivative of Example 20] | – | – | 0.81 nM | 2.7 pM | 5.8 pM | –
